Laboratory results as given in article PMC7581431, “Feedback control of Wnt signaling based on ultrastable histidine cluster co-aggregation between Naked/NKD and Axin” (eLife, 2020).

Experiments:
[1] = molecular target: the molecule itself; assay: SEC-MALS; purified proteins and preformed complexes, Superdex-200 10/300, 2 mg/ml, 15 mM TrisHCl, 150 mM NaCl, pH 7.4
[2] = molecular target: T1, Lip-DVL2-PDZ (human, UniProt O14641 285-373); assay: ITC; MicroCal iTC200, 15 mM Tris-HCl, 150 mM NaCl, pH 7.4; Lip-DVL2-PDZ or Lip-DVL2-PDZ-V334E (696 μM) injected into 17.2 μM RFP-NKD-EF; conditions: both partners purified
T1 construct: PDZ domain of human DVL2, residues 285-373; also called DVL2 PDZ domain; wt DVL2 PDZ domain; source: E. coli BL21DE3 pRare2, purified (NiNTA, SEC)
T1 sequence (looked up): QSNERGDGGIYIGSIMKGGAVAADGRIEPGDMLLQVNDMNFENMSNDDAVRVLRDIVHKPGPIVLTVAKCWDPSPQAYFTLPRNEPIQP

Kd [2]: 3.2 ± 0.2 µM
B1: RFP-NKD1-EF (domain or fragment, human, UniProt Q969G9 110-190, looked up)
chain: EPCPGSKKQLKFEELQCDVSMEEDSRQEWTFTLYDFDNNGKVTREDITSLLHTIYEVVDSSVNHSPTSSKMLRVKLTVAPD
notes: EF-hand of human NKD1, residues 110-190; Dimer by SEC-MALS (expected RFP-NKD1-EF dimer, 71.8 kDa); also called RFP-NKD-EF; NKD1 EF-hand; source: E. coli BL21DE3 pRare2, purified (NiNTA, SEC)
stoichiometry N [1]: 2
